This note sets out measurements from US20230265167A1, “COMPOSITIONS HAVING NEUROREGENERATIVE APPLICATIONS” (GRIFOLS WORLDWIDE OPERATIONS LIMITED, priority 2020, published 2023).

In this assay the test system is SH-SY5Y cells. Kind of assay: Neurite outgrowth (differentiation) in SH-SY5Y cells, Tubulin Tracker imaging. The assay is classed as cell-based, human. The method, then:
Transferrin is utilized in cell culture and in-vivo to deliver iron as a nutrient to cells. This is typically accomplished through the actions of holo-transferrin (HoloTf) binding to, and endocytosis by, its cognate receptor CD71, the transferrin receptor 1 (TfR1). Transferrin is typically believed to provide cells with iron as a means to promote and sustain metabolic activity. […] Induction of neuronal differentiation was assessed by morphological parameters of neurite formation (a key element typically used as a marker of neuronal differentiation, neuronal health, and function) according to the procedures of Agholme, 2010. J. of Alzheimer's Disease. Vol. 20:1p 069-108; and Dyberg et al., 2017. PNAS Vol 114 (32), E6603-E6612.
Undifferentiated SH-SY5Y cells were seeded into 96 well clear bottom plates in media containing 0.1% FBS. A serum-free base media was utilized as recommended by the supplier for SH-SY5Y cells (Sigma, Cat #94030304-1VL). Twenty-four hours after seeding cells, a 3× stock solution of ApoTf, final concentrations indicated on the x-axis, in serum free base media was added to the cells. ApoTf was obtained and purified from pooled human plasma and dosed at a final concentration of 0.2 mg/mL.
Cells were allowed to differentiate for 6 days. Neurite growth was assessed by imaging and image analysis. […]
After obtaining images, the MetaExpress Neurite Outgrowth analysis module (Molecular Devices) was used to identify cells, cell bodies, and quantify neurites. […] The Outgrowth Fold Change was determined by setting the untreated control cells to a value of 1 with all other treatments shown relative to untreated control.
Undifferentiated SH-SY5Y cells were seeded and treated as described in Example 1. Neurite growth was assessed by imaging and image analysis. […] After obtaining images, the MetaExpress Neurite Outgrowth analysis module (Molecular Devices) was used to identify cell bodies and quantify neurites. […] The Outgrowth Fold Change was determined by setting the untreated control to a value of 1 with all other treatments shown relative to untreated control. […]

B1: BDNF: brain-derived neurotrophic factor; NGF superfamily; SEQ ID NO: 6 (protein, listed as Homo sapiens)
chain: MFHQVRRVMTILFLTMVISYFGCMKAAPMKEANIRGQGGLAYPGVRTHGTLESVNGPKAGSRGLTSLADTFEHVIEELLDEDQKVRPNEENNKDADLYTSRVMLSSQVPLEPPLLFLLEEYKNYLDAANMSMRVRRHSDPARRGELSVCDSISEWVTAADKKTAVDMSGGTVTVLEKVPVSKGQLKQYFYETKCNPMGYTKEGCRGIDKRHWNSQCRTTQSYVRALTMDSKKRIGWRFIRIDTSCVCTLTIKRGR
For the molecule B1, the “differentiation of SH-SY5Y, factor alone” value (FIGS. 7A-7D, BDNF 25 ng/mL, GDNF 1000 ng/mL, CNTF 250 ng/mL, PACAP 200 nM) is “differentiation was not induced”.

B2: N-mut rec ApoTf: Y95F/Y188F Transferrin N-lobe mutant protein, SEQ ID 4, reduced iron-binding capacity (protein)
chain: VPDKTVRWCAVSEHEATKCQSFRDHMKSVIPSDGPSVACVKKASYLDCIRAIAANEADAVTLDAGLVYDAYLAPNNLKPVVAEFYGSKEDPQTFFYAVAVVKKDSGFQMNQLRGKKSCHTGLGRSAGWNIPIGLLYCDLPEPRKPLEKAVANFFSGSCAPCADGTDFPQLCQLCPGCGCSTLNQYFGFSGAFKCLKDGAGDVAFVKHSTIFENLANKADRDQYELLCLDNTRKPVDEYKDCHLAQVPSHTVVARSMGGKEDLIWELLNQAQEHFGKDKSKEFQLFSSPHGKDLLFKDSAHGFLKVPPRMDAKMYLGYEYVTAIRNLREGTCPEAPTDECKPVKWCALSHHERLKCDEWSVNSVGKIECVSAETTEDCIAKIMNGEADAMSLDGGFVYIAGKCGLVPVLAENYNKSDNCEDTPEAGYFAVAVVKKSASDLTWDNLKGKKSCHTAVGRTAGWNIPMGLLYNKINHCRFDEFFSEGCAPGSKKDSSLCKLCMGSGLNLCEPNNKEGYYGYTGAFRCLVEKGDVAFVKHQTVPQNTGGKNPDPWAKNLNEKDYELLCLDGTRKPVEEYANCHLARAPNHAVVTRKDKEACVHKILRQQQHLFGSNVTDCSGNFCLFRSETKDLLFRDDTVCLAKLHDRNTYEKYLGEEYVKAVGNLRKCSTSSLLEACTFRRP
modifications: Y95F/Y188F mutant
With B2, the “neurogenesis (neurite outgrowth) of SH-SY5Y” value (FIG. 3B, proteins at 0.2 mg/mL) is “almost equal to that of ApoTf and rec ApoTf at inducing differentiation”.

B3: apo-lactoferrin: structural and functional homologue of apo-transferrin, obtained from Athens Research & Technology (protein, UniProt P02788 20-710, looked up)
Lactotransferrin: GRRRSVQWCAVSQPEATKCFQWQRNMRKVRGPPVSCIKRDSPIQCIQAIAENRADAVTLDGGFIYEAGLAPYKLRPVAAEVYGTERQPRTHYYAVAVVKKGGSFQLNELQGLKSCHTGLRRTAGWNVPIGTLRPFLNWTGPPEPIEAAVARFFSASCVPGADKGQFPNLCRLCAGTGENKCAFSSQEPYFSYSGAFKCLRDGAGDVAFIRESTVFEDLSDEAERDEYELLCPDNTRKPVDKFKDCHLARVPSHAVVARSVNGKEDAIWNLLRQAQEKFGKDKSPKFQLFGSPSGQKDLLFKDSAIGFSRVPPRIDSGLYLGSGYFTAIQNLRKSEEEVAARRARVVWCAVGEQELRKCNQWSGLSEGSVTCSSASTTEDCIALVLKGEADAMSLDGGYVYTAGKCGLVPVLAENYKSQQSSDPDPNCVDRPVEGYLAVAVVRRSDTSLTWNSVKGKKSCHTAVDRTAGWNIPMGLLFNQTGSCKFDEYFSQSCAPGSDPRSNLCALCIGDEQGENKCVPNSNERYYGYTGAFRCLAENAGDVAFVKDVTVLQNTDGNNNEAWAKDLKLADFALLCLDGKRKPVTEARSCHLAMAPNHAVVSRMDKVERLKQVLLHQQAKFGRNGSDCPDKFCLFQSETKNLLFNDNTECLARLHGKTTYEKYLGPQYVAGITNLKKCSTSPLLEACEFLRK
modifications: iron-free apo form
notes: structural and functional homologue of apo-transferrin, obtained from Athens Research & Technology
As for B3, where the note is “FIG. 4, proteins at 0.2 mg/mL”, the “neurogenesis / differentiation of SH-SY5Y” value is reported as “induced differentiation”.
